Reference: article PMC4215650 (Nature, 2014)

B1: Bmi1(2-109), as it stands in the crystal (domain or fragment)
chain: HRTTRIKITELNPHLMCVLCGGYFIDATTIIECLHSFCKTCIVRYLETSKYCPICDVQVHKTRPLLNIRSDKTLQDIVYKLVPGLFKNEMKRRRDFYAAHPSADAANG
B2: Ring1B(2-116), as it stands in the crystal (domain or fragment)
chain: SQAVQTNGTQPLSKTWELSLYELQRTPQEAITDGLEIVVSPRSLHSELMCPICLDMLKNTMTTKECLHRFCADCIITALRSGNKECPTCRKKLVSKRSLRPDPNFDALISKIYPS

Assays:
Experiment in all cases: crystal structure
[1] = biological target: histone H4, Xenopus, in the nucleosome core particle (Xenopus, UniProt P62799 2-103)
[2] = biological target: histone H2B, Xenopus, in the nucleosome core particle (Xenopus, UniProt P02281 5-126)
[3] = biological target: B2

| binding result [1] | binding result [2] | binding result [3] | Binder |
| --- | --- | --- | --- |
| binds | binds | binds | B1 |
| – | binds | – | B2 |
